Experimental data published in a protein production outcome set (Wang et al. 2014).

Test: label from the status in PepcDB records

Sequence	protein production
MEELSSVGEQVFAAECILSKRLRKGKLEYLVKWRGWSSKHNSWEPEENILDPRLLLAFQKKEHEKEVQNRKRGKRPRGRPRKLTAMSSCSRRSKLKEPDAPSKSKSSSSSSSSTSSSSSSDEEDDSDLDAKRGPRGRETHPVPQKKAQILVAKPELKDPIRKKRGRKPLPPEQKATRRPVSLAKVLKTARKDLGAPASKLPPPLSAPVAGLAALKAHAKEACGGPSAMATPENLASLMKGMASSPGRGGISWQSSIVHYMNRMTQSQAQAASRLALKAQATNKCGLGLDLKVRTQKGELGMSPPGSKIPKAPSGGAVEQKVGNTGGPPHTHGASRVPAGCPGPQPAPTQELSLQVLDLQSVKNGMPGVGLLARHATATKGVPATNPAPGKGTGSGLIGASGATMPTDTSKSEKLASRAVAPPTPASKRDCVKGSATPSGQESRTAPGEARKAATLPEMSAGEESSSSDSDPDSASPPSTGQNPSVSVQTSQDWKPTRSLIEHVFVTDVTANLITVTVKESPTSVGFFNLRHY	failed
DNDAEALLWSELRDRRLNGFKFVRQVAVGPYFADFACRDERLVVEVDGSQHQIGSGDARRDKFMVMNGWSVLRFWNTDIFNDRAAVLETIVAVLEKRLVREVRSAD	failed
AWMHGHRFYVDERVIVPRSFIGELLDDGLQPYVEDPELVGSVLELCTGSGCLAILAALAFPNASVDAVDLSADALAVAKINRDDYGLDERIALHHGDLYAPLPQFKWIDSAQRYDVIITNPPYVNAESMAELPAEYRHEPEMALAGGADGMDIVRRIIGEARRWLKDDGVLVVEIGNERANVEAAFGGLELVWLPTSAGDDSVFLIHASD	failed
MCRALLSITMQIPLVKWTEGLNIKTIVSISYVCYAVAAIGFAFSSSIFWLLSTAVLFTAAESMLLNHMQTFVSRLAPNHIRGGYFAFFGPHWDISRTIGPFLGGMIFIKFGGAALFLAIAGIMALGGIAQYRAVSRLKKLVLYSTWY	failed
MTETFNPDLDLKISRIIKAPRRLVWNAWTDKTSLEQWWVPHPGQCRVDKMELHPGGAFETRYSEDGREFGQHVSGCFLAVDHEQRLIFTDALTAGFRPSAQPFLTAVMTFRDHPDGMEYEAYAMHNNLADRDRHAEMGFFDGWNTVAEQLAQLVEKQAAH	failed
MEDIKIKEIFENIYEVDLGDGLKRIATKSIVKGKKVYDEKIIKIGDEEYRIWNPNKSKLAAAIIKGLKVMPIKRDSKILYLGASAGTTPSHVADIADKGIVYAIEYAPRIMRELLDACAERENIIPILGDANKPQEYANIVEKVDVIYEDVAQPNQAEILIKNAKWFLKKGGYGMIAIKARSIDVTKDPKEIFKEQKEILEAGGFKIVDEVDIEPFEKDHVMFVGIWEGK	not failed
MAAWVCILGQMKPDPETKPDPMRQTAQPAPQRLLRHLPLIVIVLIAVIGAITLRDYLSFDTLAANRQALLAYREAHYAALAAIFVATYVLIVAFSLPGAAVASMTGGFLFGLAVGTVLNVVAATIGAVAIFLAARAGLGAMLTARLEASEGTVKRLKEGLRRNEIEVLFLLRLVPAVPFFAANLIPALVGVKLRNYVLTTALGIVPGAIVFTWIGVGLGGVFDRGESPDLSLFREPFVIGPILGLCLLAALPIAIKALRGKPEGE	failed
MHREQAPEHRDRTSEHRDRTPERRDRTPEPPGRASGPAAPAPASEPPGTDLGWLLEDLVARTDHVRQAVLLTADGLPLSASDGMRARDIEHLAAVCSGFHSLARSAGERFAAGDVRQTMVMLDDAYLFITPAGDGSRLAVLSEVQTDVGQLAHEMALLVRRVGRHMDAAVRSAVHSAGS	failed
SKKPYIVTIACTKGGSAKSTNAANIGAFCADHGLRTLLIDTDTQPTLSSYYSLAKTAPGGIYEFLLQRDVEPSHIVSQTSIKNLDLIQSNDPSNNVSHMLRNAPDGSIRFSHLIKSINNYDVIVIDTRGTRDITVDMSVLAADILFCPILPQILSAKEFIRGTIGMYQDLQTFESFGFKLPPLKAIANGVDNTNDVKFVMQKLHTLFANTFDES	failed
MADSLAGIDQVTSLHKNNELQLLCFRLGKNKDLYAVNVFKIREVVKYHGNLTIISHENNSLVEGLIIIRELTIPLIDMKKWFYYDSQNKNKDLRPYRIEKEKGEDDIVMICEFSRWTIGVRIYEADRILSKKWTEMEQSAGLGGSAGNNKLVSRTRYFDGRLVQVVDIEKMLIDVFPWIEDEKHNDLETLSKIHSNQCVLLADDSPSVLKTMQMILDKLGVKHIDFINGKTLLEHLFNPTTDVSNIGLIITDLEMPEASGFEVIKQVKNNPLTSKIPIVVNSSMSGSSNEDMARSLKADDFISKSNPKDIQRVVKQFLELA	failed
MGKSDFLSPKAIANRIKSKGLQKLRWYCQMCQKQCRDENGFKCHCMSESHQRQLLLASENPQQFMDYFSEEFRNDFLELLRRRFGTKRVHNNIVYNEYISHREHIHMNATQWETLTDFTKWLGREGLCKVDETPKGWYIQYIDRDPETIRRQLELEKKKKQDLDDEEKTAKFIEEQVRRGLEGKEQETPVFTELS	not failed
MIVITGASSGLGAELAKLYDAEGKATYLTGRSESKLSTVTNCLSNNVGYRACDLASHQEVEQLFEQLDSIPSTVVHSAGSGYFGPLEKQDPDQIQTLIENNLSSAINVLRELVKRYKDQPVNVVMIMSTAAQQPKAQESTYCAVKWAVKGLIESVRLELKGKPMKIIAVYPGGMATEFWETSGKSLDTSSFMSAEDAALMILGALANIGNGYVSDITVNRL	failed
MLVSCAMRLHSGVFPDYAEKLPQEEKMEKEDSFPQRVWQIVAAIPEGYVTTYGDVAKLAGSPRAARQVGGVLKRLPEGSTLPWHRVVNRHGTISLTGPDLQRQRQALLAEGVMVSGSGQIDLQRYRWNY	failed
MAEISHPPMEQLQDLEYCIDSNPPWPETVLLAFQNYILMLGTSAFIPALLVPAMGGSDGDRARVIQTLLFVAGIKTLLQALFGTRLPAVVGGSLAYVVPIAYIINDSSLQKISNDHERFIHTMRAIQGALIVASSIQIILGYSQVWGLFSRFFSPLGMAPVVGLVGLGMFQRGFPQLGNCIEIGLPMLLLVIGLTQYLKHVRPFKDVPIFERFPILICVTIVWIYAVILTASGAYRGKPSLTQHSCRTDKANLISTAPWFKFPYPLQWGPPTFSVGHSFAMMSAVLVSMVESTGAYIAASRLAIATPPPAYVLSRGIGWQGIGVLLDGLFGTGTGSTVLVENVGLLGLTRVGSRRVVQVSAGFMIVFSTLGKFGAVFASIPVPIYAALHCILFGLVAAVGLSFLQFTNMNSMRNLMITGLSLFLGISIPQFFAQYWDARHYGLVHTNAGWFNAFLNTLFMSPATVGLIIAVFMDNTMEVERSKKDRGMPWWVKFRTFRGDNRNEEFYTLPFNLNRFFPPT	failed
MKKFILIMVLGSALFTGGAIYDGIDNQDMTQPTIHFWEKNPMKLNLYAKGQCTYYVFDRIRQDGNMISNRWGDAKYWANEASKEGYKVNDNPSVGSILQYPKGQHGHVAYVDKVNHDGSLTVFDMNYRKPYEVTKRTVYEYQVDEFNYIHPKKNQSENA	failed
MTEVRPGAVASASLWERDAEIAALVEAVDALRADSPSSGSGSLLVFSGEAGIGKTALLGETRRIAESRGCTVWSARGGETVTSVPFNVVRQLLQPALVALMPDEAREYLGDWYDIAGPALGITEPGDRQADPQGVCDGLVAAVRRLARREWPLVLLIDDAHWADQETLHWLAAFAERLHDLSVLVVVARRPGEATEESTRHLDVIAAAAGPVATLSALTPEATAGLTRATVGVHADAPFCREVWAVTGGNPYETVELLAKVQDSELEPSESSAAELRALNRSARGRGLVARLEGLGIDATRFAWAAAILGTGISLDLAAQLAGMQREEALHCADLLGAARILTEPAPVNGRQPDGDLEFVHPLIASAVYNSIPDALRTAMHGVAAQVVTDSGLGAAAASRHLLEVHPDDDAELVDQMREAAREHLAVGAPDAARRCLERALLEPPLSDVHARVLYELGCATLLTSPATTIDYLQAALAMPGLDGDVRVDAVFRLSQALLHNNQVEEAVRTVDAEAARLEPGPARMRLQAVHYMWECVHAGEDISPTSVRALAELAKKCTGKDNSERALLILRGFDAMTRGENAEEVAELCDRALVNGRLAPGLGWTDTEWGIELLMMLASAYAYADRLDRAEALYNEALRAYEGAGWSGGHLALAHSYVGLGHRRRGRLTEAEKYLRESLRIAERVGRGLPLYWSATCGLVDTLLARGHVEEAAEIAERYGFGPPYPTTIVLPDTRSVRGRLLLALGRTEEGVNELEAAEKAATARGHHNTVLAPWALDLARALAVDDPRRAAELAATARRQAERFGTDTAIGEALRCAAALETGQRAASLYKQAVTYLEASPCSYEHAAARVEYGIATRSATELTRGLTLARSCGADGLVAQAQEALDNGPGLR	failed
MTADRPLLGIFLMLGFCVLAPMGDALAKLLGGTMPTMQLLLVRFAIQAVILIPLVQATGRPWQLRGRLLRLTALRTLLHIVGIWAMFTALRYLPLADAIAIAFVMPFIMLLLGKYVLGEEVGPRRLGACIVGFAGTLLVIQPSFAEVGLPALLPLLVAVVFALFMLVTRQLAKDTDPIALQAVSGVMACVALTPVLLIGHAAGVEALTLVTASGTTLWLLLAIGVLGTAAHLLMTWSLRYAPSATLAPMQYLEIPVATAIGWLIFHDLPNGLAALGILITMAAGLYVILREQATARSAATETSG	failed
SSQRYMQILQIMPEAIFIHDNGKCNFINDKAIKLLEVKDVKDIIGKNIVDFIHEDYKELAQARIDKTMKTGMPCDFIEERLVTAMGKKIIIEAATTTFSHNNGTFITIIRDMT	failed
MNYKLTLHPGSNPVEEFTSIPHGVTSLDLSLNNLYSISTVELIQAFANTPASVTSLNLSGNSLGFKNSDELVQILAAIPANVTSLNLSGNFLSYKSSDELVKTLAAIPFTITVLDLGWNDFSSKSSSEFKQAFSNLPASITSLNLRGNDLGIKSSDELIQILAAIPANVNSLNLRGNNLASKNCAELAKFLASIPASVTSLDLSANLLGLKSYAELAYIFSSIPNHVVSLNLCLNCLHGPSLENLKLLKDSLKHLQTVYLDYDIVKNMSKEQCKALGAAFPNIQKIILVDKNGKEIHPSHSIPISNLIRELSGKADVPSLEHHHHHH	not failed
MPKKLGPKSQRQRGAVAPLTQVQQAACSPTYKQAKRNARSYQGRRRRRRCSQNTTSRVPSQLQAVDSSSASCRTYKNSEELRSRIVSGIITPIHEQWEKANVSSPHREFPPATAREVDPLRIPPHHPHTSRQPPWCDPLGPFVVGGEDLDPFGPRRGGMIVDPLRSGFPRALIDPSSGLPNRLPPGAVPPGARFDPFGPIGTSPPGPNPDHLPPPGYDDMYL	failed
SLRSMVSDSVDEIVDGVSKTTAEVINGRKSIAQYATSLIENNPEPDNVRTIISQPLIKNTFLLVGFGLEKDGSNINNDPSWNPGPTWDPRVRPWYKDAKNAGKLVITAPYADSASGEILVSVATPVKDSATGQFLGSIFYDVSLAELAELVNEVKLFDAGYVFIVSEDGTTIAHPKKEFNGKPMSEFLGESKINVDTHQVIINGKPYAVSFSDVEGEDWYVGVVIDEEIAYAALDELRRS	not failed
MRQSYRTPLLASLLVLICAVVLWNAYEWFQGRYLRAFSEHTAMFSGDPLQLPAELAGPGAIRLVHFWDPACPCNVGNQQHLAELIEAYSPRGVEFYAVQKPGSHGQLPATLSRLKHLDSLPGAEQIPASPAVAIWDRNGKLAYFGPYSEGLTCNSSNSFIEPILQALEDNRPVSATHTLAIGCYCPWPA	failed
MNITLAVLQLEDIPQAKQFAIRTRQLLFPDVYQLALPYDLTHFQDVYLHDQKGACFVVKDQQHNIIGMIAYRAYNHRFALDIPKDSVEVVKLFIQPEYRRQGLASRLCEALFGYAAQQKIKYFYLHTHPFLPAAEYFWTKQGFDVIHREEIQNYDTIHMFKSA	failed
